Tests used:
myh9_human MYH9 [1] = target: myh9_human MYH9 (UniProt P35579)
myh9_human MYH9 [2] = target: myh9_human MYH9 (UniProt P35579); remark: listed apart in the source

Sequence of myh9_human MYH9 (P35579 whole entry): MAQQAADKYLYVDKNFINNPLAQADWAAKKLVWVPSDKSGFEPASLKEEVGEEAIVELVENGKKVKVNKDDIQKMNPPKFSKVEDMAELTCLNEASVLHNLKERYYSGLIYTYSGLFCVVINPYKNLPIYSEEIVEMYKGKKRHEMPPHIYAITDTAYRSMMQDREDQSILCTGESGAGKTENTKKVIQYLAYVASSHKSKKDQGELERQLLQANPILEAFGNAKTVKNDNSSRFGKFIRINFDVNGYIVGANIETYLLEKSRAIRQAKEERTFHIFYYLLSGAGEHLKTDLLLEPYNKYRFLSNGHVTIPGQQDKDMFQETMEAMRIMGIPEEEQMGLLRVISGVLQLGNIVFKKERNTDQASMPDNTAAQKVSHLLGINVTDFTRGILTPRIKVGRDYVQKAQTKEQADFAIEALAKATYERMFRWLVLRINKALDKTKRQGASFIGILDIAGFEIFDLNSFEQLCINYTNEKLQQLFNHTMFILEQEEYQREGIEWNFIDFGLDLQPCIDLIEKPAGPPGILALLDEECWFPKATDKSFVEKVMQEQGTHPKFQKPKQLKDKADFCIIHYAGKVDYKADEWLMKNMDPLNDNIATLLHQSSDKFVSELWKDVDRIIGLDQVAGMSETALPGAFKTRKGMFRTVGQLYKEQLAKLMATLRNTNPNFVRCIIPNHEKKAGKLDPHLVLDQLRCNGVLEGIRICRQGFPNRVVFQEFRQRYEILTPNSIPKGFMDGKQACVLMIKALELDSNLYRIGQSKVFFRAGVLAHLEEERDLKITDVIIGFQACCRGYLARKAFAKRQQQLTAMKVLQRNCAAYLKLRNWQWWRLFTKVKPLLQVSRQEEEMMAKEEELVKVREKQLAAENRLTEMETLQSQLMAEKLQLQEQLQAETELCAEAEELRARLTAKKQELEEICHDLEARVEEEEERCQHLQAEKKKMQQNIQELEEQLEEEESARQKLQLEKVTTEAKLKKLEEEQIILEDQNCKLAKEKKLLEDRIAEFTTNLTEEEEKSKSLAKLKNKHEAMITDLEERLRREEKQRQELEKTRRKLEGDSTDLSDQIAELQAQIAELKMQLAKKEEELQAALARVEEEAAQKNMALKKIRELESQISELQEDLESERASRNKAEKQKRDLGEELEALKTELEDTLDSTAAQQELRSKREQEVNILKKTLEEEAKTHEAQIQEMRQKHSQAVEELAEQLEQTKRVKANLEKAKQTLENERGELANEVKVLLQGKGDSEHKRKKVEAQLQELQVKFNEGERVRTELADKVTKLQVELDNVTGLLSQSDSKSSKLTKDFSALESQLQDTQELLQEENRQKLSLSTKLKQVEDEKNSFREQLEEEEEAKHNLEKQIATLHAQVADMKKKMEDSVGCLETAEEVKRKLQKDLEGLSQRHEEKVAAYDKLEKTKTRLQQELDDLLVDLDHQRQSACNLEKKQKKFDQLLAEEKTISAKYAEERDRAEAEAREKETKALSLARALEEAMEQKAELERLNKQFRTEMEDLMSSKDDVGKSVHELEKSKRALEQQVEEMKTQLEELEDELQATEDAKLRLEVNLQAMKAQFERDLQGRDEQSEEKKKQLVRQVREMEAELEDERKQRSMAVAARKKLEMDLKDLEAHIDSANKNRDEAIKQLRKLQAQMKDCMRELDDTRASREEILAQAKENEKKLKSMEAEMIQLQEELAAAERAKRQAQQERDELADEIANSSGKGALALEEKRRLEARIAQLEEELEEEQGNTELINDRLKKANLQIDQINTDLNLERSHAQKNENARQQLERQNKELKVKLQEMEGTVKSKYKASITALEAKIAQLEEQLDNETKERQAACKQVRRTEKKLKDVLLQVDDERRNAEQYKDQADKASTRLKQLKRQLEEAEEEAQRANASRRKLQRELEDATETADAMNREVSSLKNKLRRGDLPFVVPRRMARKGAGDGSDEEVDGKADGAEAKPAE
Sequence of Protein S100-A4 (Homo sapiens), P26447 C3S;F45W;C81S;C86S (P26447 whole entry C3S/F45W/C81S/C86S): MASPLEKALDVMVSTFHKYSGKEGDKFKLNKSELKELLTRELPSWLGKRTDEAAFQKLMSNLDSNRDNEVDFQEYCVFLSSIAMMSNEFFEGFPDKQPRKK

effect of a mutation on the interaction (myh9_human MYH9 [1]) | effect of a mutation on the interaction (myh9_human MYH9 [2]) | Substance
with no effect |  | Protein S100-A4 (Homo sapiens), P26447 F45W
 | decreasing interaction strength | Protein S100-A4 (Homo sapiens), P26447 C3S;F45W;C81S;C86S

— IntAct's records for PubMed 22460785
